In the supplement of paper PMC12042874:
± gives the uncertainty stated by the source.

Test: amyloid nucleation score (Sup35N fusion, yeast selection) (log enrichment); library NNK1; higher = more nucleation; inactive = no reads after selection
Procedure, shortened: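 The nucleation score, computed with DiMSum, is the log enrichment of output over input reads, centred on the mode score of non-aggregating sequences. Sequences with under 100 input reads were dropped. Reads were generated by Illumina sequencing of plasmid inserts from psi-negative yeast with Sup35N fused to peptides of 20 random codons, induced with 100 μM copper sulfate for 24 hours and grown 7 days at 30°C on medium lacking adenine and uracil.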

| Substance | amyloid nucleation score |
| --- | --- |
| TCYGQAVFLTDCSGRWDIYE | 3.34 ± 0.16 |
| IHLCYRDYRMHVARLSAETG | 0.02 ± 0.53 |
| LLVVSYFITSLSTCMFGYWK | -0.411 ± 0.63 |
| PSSYF | 0.45 ± 0.47 |
| YIYNWRYN | 1.71 ± 0.54 |
| GIFHANLTMVWRHIEVKEGC | 0.696 ± 0.92 |
| SFNVNLGSHRDVMIVFSF | 6.24 ± 0.064 |
| SGFGYSYCTLHCRTFWCLRP | 0.972 ± 0.3 |
| IMSKRTWWLRPRGPTACFQW | 0.208 ± 0.44 |
| TKTTVHCFSSMIQYCAAPTL | -0.158 ± 0.73 |
| VNWVLIERWVVS | -1.13 ± 0.85 |
| VMDGYVSGCFLWRCCNRNRS | 2.92 ± 0.12 |
| NRHRRVPFRISTALLPVKLQ | 0.632 ± 0.5 |
| LSCPRNYWRSSLLVFMDGSQ | 0.319 ± 0.63 |
| QCVFYMWVSFEELK | 0.418 ± 0.97 |
| IWLRS | 0.779 ± 0.62 |
| FIHVVAFWRLSRDSY | 0.467 ± 0.55 |
| LYHRSSLGMVSVVGDSMSDT | 0.596 ± 1.2 |
| ARSTSALQL | -1.97 ± 1.8 |
| VMWGQPCQIFSGYAYLRHKV | 0.053 ± 0.48 |
| LILHSNSGFNGYWVSQWNTM | -0.304 ± 0.44 |
| CRLSNGV | -0.392 ± 0.31 |
| GGIVLDTTHRVGYGRTSPCV | 0.289 ± 1.2 |
| TFGPTHLGLVKYVEIDYHVA | -0.725 ± 0.9 |
| GMYLYIPLSITFTVEHTVVA | 5.02 ± 0.093 |
| ALDVWVLMKHSYGLSTVDAL | inactive |

| Substance | amyloid nucleation score |
| --- | --- |
| VHKDFHANANRVSWQLAL | -0.243 ± 0.73 |
| ELSNRVRTEFVCIRTLVEDN | inactive |
| VAMRIWLVNACLGG | 0.092 ± 0.63 |
| TSNHML | 0.226 ± 0.61 |
| LLWAPILCLTGDNTVGFLSP | 3.3 ± 0.066 |
| AGGLLYMLTHLNDVHSVKRY | 1.12 ± 0.93 |
| YNGVCSNW | 0.13 ± 0.48 |
| SNREFLQSVVLW | 0.209 ± 0.48 |
| AQTWGESKTLPENLANYDAY | 0.241 ± 0.56 |
| EFSSKMSRMM | 0.268 ± 1.2 |
| GSGWEGSTVRFSQASFGELW | 0.328 ± 0.97 |
| TVMANKY | -0.16 ± 0.32 |
| SYGHLRAFFEDCSH | -0.145 ± 0.51 |
| AGNCRDW | -0.857 ± 0.66 |
| YCAKNCEGFGRVYISG | -2.42 ± 2.7 |
| SFAII | 0.91 ± 0.3 |
| PIHDLRKLIYVTPEFYWGFY | 0.561 ± 0.48 |
| YHDVGSAVRMLYQMGPKRVF | -0.442 ± 1.4 |
| TQRFFIVRMPSVCNNYYHLA | 4.52 ± 0.067 |
| NPCWTVYLEFL | 0.186 ± 0.27 |
| YFWASHISSVYLNLETCDTM | -0.417 ± 0.42 |
| MCREYVFDNSPVT | -0.89 ± 1.2 |
| MLWRYKRCNFARMFNLRVYV | -0.822 ± 0.65 |
| SFNNMANMAYYRVRGVLVL | -0.438 ± 0.6 |
| FIYLENAS | 0.532 ± 0.38 |
| LAEVQRKTR | -0.291 ± 0.59 |

| Substance | amyloid nucleation score |
| --- | --- |
| LAREAGR | inactive |
| LKAELSNLKAHVLW | 0.777 ± 0.54 |
| QVFGFYTMEKVYHVGGIASV | -0.296 ± 0.3 |
| MTRVNLKDKHNVRILSFN | inactive |
| AVRDDMDY | -0.059 ± 0.22 |
| FVVRLRLLANLWWYNCCKCS | 0.748 ± 0.43 |
| RKGSVSQRDYSIDYWGFCRC | 1.37 ± 0.22 |
| FSLRDISNISIWAYLNQPCR | -0.341 ± 0.32 |
| SPFPGKEFNGIVCPLPYSMI | -0.366 ± 0.56 |
| DYDTMSNFSDSALCTPIRCD | 0.485 ± 0.35 |
| FKTRSRNRLVCCYEESRTDL | 0.536 ± 0.34 |
| VIAILLDGHLKVFTTLGYNR | -1.59 ± 1.5 |
| LDSTLSLQ | 0.071 ± 0.3 |
| FRIRRGKRSVHTVNFAFAEV | 0.583 ± 0.8 |
| RYARLMYASACCSSC | -0.404 ± 0.52 |
| NSCRCYFLLGELDLNAFNSV | 1.74 ± 0.55 |
| ILSKVCGFSVARIWCSCISI | 6.65 ± 0.088 |
| GDMFVAKCYSRGDSQISLMF | 0.368 ± 0.37 |
| HVLWGIVLVVIFFW | -0.151 ± 0.29 |
| AAAFSSGGKLFHAGCWRRMM | -0.681 ± 1.6 |
| TKMHCVGGSSRTNKSLWTIY | 1.08 ± 0.57 |
| FKYSFMIYNLARSVCYCTVS | -0.002 ± 1.4 |
| VNIRRRTLFS | 0.023 ± 0.3 |
| TCIISTDGCMQAGHFVGDRR | -0.69 ± 0.54 |
| YVGQGPGSLLTTGWVRYSL | -0.137 ± 0.6 |
| AVCDKVLRSVEWIFPGLNDS | -0.496 ± 0.51 |

| Substance | amyloid nucleation score |
| --- | --- |
| YQTGYGGCGYCRLVRGCVKV | -0.442 ± 0.33 |
| FRDCLLVRYLCNVLTGDCTH | 1.94 ± 0.52 |
| ILFFRRCISVGLL | 3.33 ± 0.12 |
| LRIRYT | 2.42 ± 0.17 |
| QKSIDLYFEKRHTISTQNR | -0.455 ± 0.56 |
| VSQHSERQGAVCNRCFIVWR | 6.101 ± 0.057 |
| AGFLS | -0.388 ± 0.62 |
| QLVGFVVPRRSSPGVHTGEC | 1.21 ± 0.53 |
| AESSLLSLIVFNTNYFEAGQ | 6.753 ± 0.046 |
| YMGHDC | 0.011 ± 0.21 |
| HCVTFACC | 0.523 ± 0.53 |
| SMLYFRNFRASLLPWAVDFT | -0.496 ± 1.7 |
| MNVTCDGRMGIQVDPVRYNR | -0.122 ± 1.4 |
| LMWSMPNGTSYGNGPVEWTG | -0.515 ± 0.81 |
| HNRMMMRADVTAVDTRYFTS | -1.57 ± 1.3 |
| SAYSILSTMFIYFVKSQGTD | 3.38 ± 0.058 |
| VYASSCMLGTWLSDSTSGCS | 0.371 ± 0.69 |
| GDSYVRHRMDP | inactive |
| AMWLFACGLWLLLPRYIGRC | -0.485 ± 1.2 |
| FMDWIVSCGKCKIGSYYLCI | -0.388 ± 0.29 |
| WGKLTKQERGWDNDKVNQEC | 0.094 ± 0.4 |
| YTPGSGVLRAGTADQLMRNF | 0.522 ± 0.63 |
| SNQAHSMLISTIIMILGCYC | 0.419 ± 0.34 |
| ILILRGNCR | -0.165 ± 0.73 |
| GSTTSLRFTVLQTFLFSCNN | -0.663 ± 0.8 |
| YCTCRLVKFEVDW | inactive |

| Substance | amyloid nucleation score |
| --- | --- |
| LTNGAVGVTFAQNVWPFYAN | 3.67 ± 0.074 |
| KLSGCMISKILFSPCWRD | 5.896 ± 0.058 |
| CVDRRV | 0.203 ± 0.56 |
| VMSSKDKLIWYTFL | 5.199 ± 0.049 |
| MAFLYFMFILFHARCLIRLP | -0.177 ± 0.65 |
| SVNVRVTDYKYRGLFACAFG | 0.529 ± 0.58 |
| GPWGQICSDTFYLLFVWVSW | 0.133 ± 0.37 |
| DRSDDGHNESLWAVLMRHKV | 0.315 ± 0.52 |
| CRGNDKVLPKIGATNCWLST | inactive |
| GCFRGPTGLCG | -0.271 ± 0.66 |
| ISRADVWVWFLLSMSRREYF | 0.268 ± 0.55 |
| PNCDAYWVNWFKLRCLSHLF | -0.489 ± 1.7 |
| DETQKPRVLCMLLLSKSTEN | 0.558 ± 0.34 |
| FHHTKSGS | 1.67 ± 0.57 |
| QGRGMDNVIYVEVRMRDCRR | 2.04 ± 0.24 |
| DCYNLKQWRSCCDLAVASGG | 0.24 ± 0.88 |
| PYVGPLMNFYHSMGMWWMYN | inactive |
| IGCLKFSFFHNLGFGSIDYR | -0.742 ± 0.53 |
| ESRKYWVNMVIGQDDRLVHP | inactive |
| NFACVFTSTSRMCRH | 3.85 ± 0.1 |
| KKKYTEHISFTALHKLFTRR | 0.189 ± 0.92 |
| LWIQMLAWCSRCM | 1.65 ± 0.32 |
| YVSYVCLDWM | 6.7 ± 0.068 |
